# Assay: soluble on expression in E. coli; label from the status in PepcDB or PDB records
row,Sequence,soluble on expression in E. coli
1,MPCRGLHSIPAGPVEFPEIATVYVMCGEKLTVMIDAGVSNSIADFSFLDKLDYIVLTHLHIDHIGLLPELLQVYKAKVLVKSGFKKYLTSEDGLKKLNESAEKVLGDLYYVYGGLEKKLDQDKVIEVEGNEEFDLGGYRMRLIYTPGHARHHMSVLVDDFLFTGDSAGAYFNGVVIPTTPPVIDYKMYMESLKRQIELKPKVVGFAHGGLVSPKIMEEHLKQMLSKEEIQINVDIGGVAGEILRKQIEVNLRGLRESKKSI,soluble
2,GPGSMLRWQMQPVRTSVRNFIASGFPSKKLRYARLVDVEECASRPQFQKLLQSYLSDFFAKSHENGSTGSSPWFTAVPPSLRNSVEETVNYLGMLVAIDFRHWGEDPPDATPTGSRVENICGFYAELPEGSAETSGSVSYGGKRLIRGSMAMVHLLCRAVEVYHLNWHCPQFLQQFATTEDAMEALERCFLGYREDGHTSMWMPAARERVELLLSLSRSLVEKDTSFFKMLCLSEGYLYHPIFPHLGFVEMLVELHPRYYDVCVLRGEVGGGKDSDQGDEIVIPMLKLAQLTVMAIEEAVSAMDTVAANTPNVTEAPFPFSGAHGVFKDKHHLTVCCDYQLPKALRSLGLVEYDSYLASLVDTGVLLAAGGVEECCIRVAALVASDLLLDYLRSSCACTTGREWRPESTSRVWDAPALDCMLWWIGRHYVDSAVKHHLCRTIMY,not soluble
3,VNSVQIKNATAIVTGASSGIGLAFASLLAQKGYNLLLIARNINKLNDLAKTLSTQYDTQCNVLSIDLSEENASKKVLEYIITNNLNISVLINNAGFSGNYKFLEADWSQLSKELNVMSIAVTELCYLIAPLMEKNSWGRIINVSSGAAYLPPTQSLLYTGLKSYVLNFSQSLDMELKPKGINVTALCPGFTRSEFHNTMGTNKQVSKVPNFLWQA,not soluble
4,QETGISMIGERTNSNGSKAFREAMLSGDWEKCVDIAKQQTRDGAHMLDLCVDYVGRDGTADMATLAALLATSSTLPIMIDSTEPEVIRTGLEHLGGRSIVNSVNFEDGDGPESRYQRIMKLVKQHGAAVVALTIDEEGQARTAEHKVRIAKRLIDDITGSYGLDIKDIVVDCLTFPISTGQEETRRDGIETIEAIRELKKLYPEIHTTLGLSNISFGLNPAARQVLNSVFLNECIEAGLDSAIAHSSKILPMNRIDDRQREVALDMVYDRRTEDYDPLQEFMQLFEGVSAAD,not soluble
5,MGSDKIHHHHHHMGNRRGFLKMSASLAAAPLIPESSAVSNELDIPVSNKRPHELARDEAHWRAVGRLYSIQEEIINLEHGYWGQMSIPVEQALARHTHRVNRELSWYARREYDRDFLKARAAVADALGVSVEELMLTRNATESFVNLITQYDELSSGNAILWADADYPEFKRMMSWLAESRQVRGTMLSLPAAGTDEDYIRIYREAFDALPDLKLMLLTHVSNQHGLVLPVREIAAIAKCRGIHVICDCAQSWGLLDFTLDDLNVDWAVFNLHKWIGSPVGVGALYMRHGTLVPVRPFPGEDSSDTDVANRVHLATSDFASFLTVPDALAFHRAIGGANKQARLNYLREAWVASLEGSSAVEVLGATGSKNASGMGAFRLRGQTSKVQVSALQTRLETEFRIFTVVRNDLASGACIRVTPQVFTPLEHVQALADAIVEISVTG,not soluble
6,MGSDKIHHHHHHMLELGQTPNAAPDAAPADLIKDTTDATFMADVVDASQTTPVIVDFWAPWCGPCKTLGPQLEAAVTAAKGKVRMVKVNVDENQQIAAQLRVQSIPMVYAFVDGQPIDGFQGAVPESQIKDFVTKLAAMSKEDGGLAEALEAAEEMLSMGEHDDAAQTFAAILGEEPENAAAMGGLARAHLAMGQVDEAEQLLSTAPDAIFNAPELEAVRAQIELARQAESAGPLAELQAAVDANPDDHAARFELAQALHANGDVEQAVDQLLELFRRDREWEDAKAKTQLFTIFDALPPQDPIALTGRRRLSSMIFA,not soluble
7,MHPASGVMVTVETPETDTVFNRCRPAADGDIVVPHGSTAVLGTTSVDVDDADEFATPDAAVERVIDECSALLPAASDAPIRTTYWGVRPLYSPSDYGDDARAISRGFYVLDHADRDDTAGLTTVVGGKLTTHRLMAEATADLVADRLGVTEPSRTANEPLPGHDDPERLDALVDTFDAASPADADARLEHHHHHH,not soluble
8,MSLFAAQYIGNKSFNVVEGHAIAPQAGEVRLDVGYVGICGTDMHIYHGVMDQRVSIPQTIGHEISGVVAQIGEGVEGFTVGEKVVVRPLDWCGECPTCEAGLTHICQNLKFMGIDTPGAFQSSWTVKARTLHKLPAGVDLKQGALVEPLSVACHDVRRSRLKAGEKAVILGGGPIGQLVAAVAKSVGAEVLVSEPNDSRREFADELGVKSVNPMDTDLAAYVDQWTGTKGADVVFEVSGVLPAIQSMTQIAGRRGRIVMVAIHSTAPPIDLFQFFWKELELLGARVYEAADFDWAIELIASGQIDLKPFISSVSPLADIGSAFANMDGNPQGMKALVECNAEEGHHHHHH,soluble
9,MGSDKIHHHHHHMSNRIDHAKAAGAFISKTEHVAFHDRRLWDLREKRDAQAHGIAEWETMRELASGIKEHTLSNLSTYLEQFAAAAEANGVTVHWAATAEEHNALVHQLMSERGMTTLVKSKSMLTDECKMREYLEPRGITVMETDLGERIQQLDHQDPSHMVVPAVHKLRADVAELFGRTIGTDPKNSDIHYLAESQRMNTRPYFVREKTAGMTGCNFAVAETGTVVVCTNEGNADLSANVPPLHIASIGIEKLIPKVSDLGVFIRMLSRSALGSPITQYTSHFRAPRKGTEMHFILVDHGRSERLAMEDFWYSLKCIRCGACMNTCPVYRRSGGLSYGGTYSGPIGAIINPTFDLKRYSALPFASTLNGSCTNVCPVKINIHEQIYKWRTVIAGHHEVPFVKQEVLKMAGRLLASPTLYRATVSSMGSALRRLPNFVLYNPLNIWGKQRELPEAPKLTFHAWYKKNRGADHDNA,not soluble
10,SNAMTKIYFAGPLFSQADLRYNAYLVEQIRQLDKTIDLYLPQENAAINDKSAYADSKMIALADTENVLASDLLVALLDGPTIDAGVASEIGVAYAKGIPVVALYTDSRQQGADNHQKLDALNEIAENQFHYLNLYTVGLIKLNGRVVSSEEDLLEEIKQRLS,soluble
11,MAQVLSLENVTLAVEKENSKQAIVKHVSFFINEGEIVALVGESGSGKSVTAQSIIGLNQESIQFDDGNISFESKDLTNLQESEWNQIRGKDISFIFQDPLSSLNPTMKVGRQITEVILQHEKKSKKEAKEIAINLLNDLGIHEAEKRFEQYPHQLSGGMRQRICLAIAFACHPKLVIADEPTTALDVTIQKQIMGLLKERKEKQNTSILLITHDLALVREVADRVVVMYGGRIVEKGTIQEVIGSPKHPYTKSLLQAIPNMDDAEKVLRAIEGTTPSIETLNSFGCPFVNRCPVAIQECIHRFPERTTYSAEHSSHCWQHVLEHDRAKSKEKVNVS,not soluble
12,MLAKSIPLGIYEKALPAGECWLERLKLAKALGFDFVEMSLDETDARLARLDWSPEQRLALVKAVAETGVRVPSMCLSAHRRFPLGSEDDAVRHQGLEIMRKAIQLAQDVGIRVIQLAGYDVYYQQANDETRRRFRDGLKQSVEMASRAQVTLAMEIMDYPLMNSISKALGYAHYLNNPWFQLYPDIGNLSAWDNDVQMELKAGSGHIVAVHVKDTKPGVFKNVPFGEGVVDFERCFETLKQTGYCGPYLIEMWSETSADPLAEVAKARDWVKARMARAGLMEAA,not soluble
13,MRNKDLEPHSFELWLNAAKTNLDKYEMALIITATLGLRRGEVMGLRNESIKISHDQINDADVAQISIDMQRNTNELNGGPLKTKSSYRTIWAFGKTVDHLKYAMITADNLRQRNNIQAEKHWLWLNNDGNPLHPTHLNRLMRRVSNRSGVEVYPHLLRHYFATQAIAANKPQIDVMHYLGHKNLQMTADYTRSTKAASLNVFNSIDKFLLEHHHHHH,not soluble
14,MGSDKIHHHHHHMKLLMIELHQEDCSNIAVSEKIKDAELNLVNVREDGDYTHIDAIFLGDMFKENVISTLRKEKAFNINLKMKSRSEIWVSYDILTTAAWRNFSSLGCTVVPPLRVANGVEKWFVYTPDEISQRDIKRQLEMDNATHISRIRELTLKSFLKVIFNMDFLSDFIDTMEALTDLQVKTIKQAYVNGYYDYPRRCTLGDLAKINGISKNAMAKRLKSVEKKIFECLFGYI,not soluble
15,AMSNNKIKRKDASPEQEAIESFTSLTKCDPKVSRKYLQRNHWNINYALNDYYDKEIGTFTDEVSTVAHPPVYPKELTQVFEHYINNNLFDIDSLVKFIEELGYNLEDLATLCLAHLLGYKKLEEPLKREDFLSTWFMQGCSTISDMQECIKTLDVKLHEDLQYFTQIYNYAFNLILDPNRKDIDTDEGIQYWKLFFQPEYPVRMEPDLLEAWFRFLRDEGKTTISKDTWRMLLLFFKRYPTIQKIISDYDETAAWPFIIDEFYECLQDQQ,soluble
16,MGSDKIHHHHHHMELQLMQWQVGDLPFFYRCQPQPSNAPYGLPDSLPFCLEFDSALGLIRQSPNTQVEAALERCYQHGSTISGMMDSGGIGQQYARDFLDFIAHHETDLTGKRVLEIGCGTGYLLSLLKQKGADVLGIEPGAQGQGGQQRHGVPIIDGFFPHPKAEGKFDLIVAYAVLEHIGEPQGFLEKIADSLAPDGVAYIAVPDCAPYIENGDISCLLHEHWSYFDASSLQRLLEVSGFAAAVQPAGFGGSIYARAVRVSHKTKPVNDEIDLAGNGFERFRSLALGAGQRLERFLAGPGQAGIYVPGRMINLLASLDSVDLAQVRLFDDNEALTGLYFPGMPNPIEDFSGLVERPPARLLIATKSFHFQIADRIEHASVEVPLLAWSDLFLVAAPK,not soluble
17,MGSSHHHHHHGKTIFVIVPTNEEQVAFLEALAKQDELNFDWQNPPTEPGQPVVILIPSDMVEWFLEMLKAKGIPFTVYVEEGGSENLYFQGGGGGGAATVTDLKNAIKNELYRIDIGMTDFYSSLSVSPTVQQQYCTAAITSRAAGLSLTMESLSSPYGVLATEYGFLIYKDTFVFGPSIKLIGASAWPNGTLTTDIQSGRHILVPYLTNTVVFVTGVIENEDGRQNILPMMRLMMVDSYLCAHMHMNVANLYRKTFRTAFAELA,not soluble
18,MDYSEIMVRHGELSTKGKNRMRFINKLKNNIQDVLAPFPAITVRSDRDRTHVSLNGTDYQPIVEALKLVFGVQALSPVYKLEKSVPLLVTAVQDIMTSLYRDGLTFKIATKRSDHAFELDSRELNSLLGGAVFEVLPNIQAQMKHPDVTLKVEIRDEAAYISYEEIKGAGGLPVGTSGKGMLMLSGGIDSPVAGYLALKRGLDIEVVHFASPPYTSPGALAKAQDLTRRLTRFGGNIQFIEVPFTEIQEEIKNKAPEAYLMTLTRRFMMRITDAIREQRKGLVIVNGESLGQVASQTLESMQAINAVTSTPIIRPVVTMDKLEIIEMAQAIDTFDISIQPFEDCCTIFAPDRPKTNPKLGNAEKYEECFDIDGLVQRAVSGIVVTEITPEIVNDEVENLIDALL,not soluble
19,MACKLLFWKLKDYQNILLYSPLGHELDIRPLIFRLRQKNKCVWLPKSIKKGAHFSKESFTIAPFRLPLRRLGWFDEPSLSRYYKQELDCIVVPILGMDTSFRRVGFGLGMYDRSLPQLLKRRLKRPLIVFVSRELAIANGVLTNAYDIEADLYMNARIVVKNNKRKHYEQRVNLHFIRSLGSVFDYRSSHVLCDEKDLLRLEHHHHHH,not soluble
